Experimental data as given in publication PMC4381055.

Experiments:
[1] = target: EcoRNAP sigma70 holoenzyme (Escherichia coli) (UniProt P0A7Z4+P0A8V2+P0A8T7+P0A800+P00579); assay: stopped-flow Cy3 fluorescence enhancement; settings: scale: fold fluorescence enhancement
[2] = target: EcoRNAP sigma70 holoenzyme (Escherichia coli, UniProt P0A7Z4;P0A8V2;P0A8T7;P0A800;P00579 1-329;1-1342;1-1407;2-91;1-613); assay: 25 C, no CarD

Molecule | binding signal [1] | apparent K (half saturation) [2]
template lacking rrnAP3 promoter, Cy3 | 0.05 | 
rrnAP3 150 bp template, +2 Cy3 (dsDNA, C6-amine on non-template +2 T) DNA 1: AAAATAGGCGTATCACGAGGCCCTTTCGTCTTCAAGAATTCGTCTTGACTCCATTGCCGGATTTGTATTAGACTGGCAGGGTTGAAGCTTATGTATCACCTGACGTCATGATGAACTCAGAAGTGAAACTACGTATATCCGATGGTAGTG DNA 2: CACTACCATCGGATATACGTAGTTTCACTTCTGAGTTCATCATGACGTCAGGTGATACATAAGCTTCAACCCTGCCAGTCTAATACAAATCCGGCAATGGAGTCAAGACGAATTCTTGAAGACGAAAGGGCCTCGTGATACGCCTATTTT |  | 23 nM
